Source: patent US10383919B1, “Fragments of growth hormone binding protein” (The University of the Sciences, priority 2013, dated 2019)
Where no end group is shown, it is not given here.

What was measured:
rhGH = target: T1, rhGH (Homo sapiens, UniProt P01241); assay: Equilibrium dialysis of GHBP peptides against rhGH (12-14 kDa MWCO membrane, MICRO-BCA read-out of lower chamber); format: binding; details: 1:1 ratio of rhGH:peptide; 0.25 mg/ml hGH stock; starting peptide 11.36 uM; 37° C., 24 hours
T1 construct: purchased Bresagen, Adelaide, Australia
T1 sequence (P01241 27-217): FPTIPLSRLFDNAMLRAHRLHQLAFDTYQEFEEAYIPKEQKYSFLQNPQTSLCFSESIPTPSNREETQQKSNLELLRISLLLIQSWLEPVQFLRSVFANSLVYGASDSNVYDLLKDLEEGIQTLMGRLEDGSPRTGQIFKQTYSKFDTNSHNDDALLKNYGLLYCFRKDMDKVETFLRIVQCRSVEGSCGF
Procedure: Equilibrium Dialysis: High Throughput Equilibrium Dialysis was performed using the 96-well Micro-Equilibrium Dialysis Device HTD (HTDialysis, LLC, CT, USA) according to the supplier's directions. The dialysis membrane was a SPECTRA/POR cellulose ester membrane. We tested a 3.5-5 kDa Molecular Weight Cut-off (MWCO) SPECTRA/POR membrane and a 12-14 kDa Molecular Weight Cut-off (MWCO) SPECTRA/POR membrane for their ability to allow peptide equilibration. Peptides were added to the upper chamber of each well of both a 3.5-5 kDa MWCO and a 12-14 kDa MWCO membrane and incubated at 37° C. with shaking at 200 rpm for 24 hours. Concentration of the peptide in the upper and lower chamber was assayed using MICRO-BCA Assay (Pierce) according to the supplier's directions.
We then confirmed the ability of the 12-14 kDa MWCO membrane to retain the hGH. Lyophilized recombinant hGH (Bresagen, Adelaide, Australia) was dissolved in phosphate-buffered saline (PBS) plus 0.05% sodium azide. One-hundred uL of a 25 mg/mL solution plus 100 uL of PBS were added to the upper chamber of the micro-dialysis device fitted with a 12-14 kDa MWCO membrane and incubated at 37° C. with shaking at 200 rpm for 24 hours. Concentration of hGH in the upper and lower chamber was assayed using MICRO-BCA Assay (Pierce) according to the supplier's directions. […] We used the 12-14 kDa MWCO membrane for our binding assays.
The upper chamber of each well received 100 uL of 0.25 mg/ml hGH and 100 uL of a 22.72 uM peptide solution. The lower chamber of each well received 100 uL of buffer and 100 uL of a 22.72 uM peptide solution. Thus, the starting concentration of peptide in both the upper and lower portion of each well was 11.36 uM. Plates were incubated at 37° C., with shaking at 200 rpm for 24 hours. […] The assay was configured with a 1:2 sample: working reagent ratio and incubated 45° C. for 4 hours and read in a spectrophotometer at 562 nm. Concentrations of peptide in the lower chamber were determined based on the equations generated by the standard curves for each peptide. […]

[1] = cited from earlier work

Substance	concentration of peptide in the lower chamber in the presence of rhGH (binding to rhGH) (rhGH)	half-life in the bloodstream [1]
R-R-N-T-Q-E (RRNTQE; listed as Homo sapiens) [Peptide 3, hGHBP fragment Arginine-70 to Glutamate-76]	substantially reduced	
S-P-E-R-E-T-F-S (SPERETFS; listed as Homo sapiens) [Peptide 1, hGHBP fragment Serine-40 to Serine-47]	substantially reduced	
TSIWIPYCIGKCFSVDEIVQPD (TSIWIPYCIGKCFSVDEIVQPD; not fully specified; printed as Thr-Ser-Ile-Trp-Ile-Pro-Tyr-Cys-Ile-Gly-Lys-Cys-Phe-Ser-Val-Asp-Glu-Ile-Val-Gln-Pro-Asp; cysteine pairing not given here; listed as Homo sapiens) [Peptide 7, Peptide 5 & Peptide 6 bridged]	substantially reduced	
hGH: Human growth hormone (somatotropin or somatropin), a peptide hormone; recombinant hGH (Bresagen) was used in the binding assays		about fifteen
